Experimental data from US20140087995A1 (published 2014).
Numbered stars: 1 amine (or outer) side, 2 acyl side, 3 side chain; on linkers, the order of the positions; unused ones are H or OH. Bridge positions count the residues as written; N and C are the ends. Side chains are listed from the residue outwards. Ends that are not written are not given here. * marks the point of attachment. C20 diacid = O=C(O)CCCCCCCCCCCCCCCCCCC(=O)*; γGlu = O=C(O)[C@H](CCC(=O)[*:2])N[*:1]; AEEA = NCCOCCOCC(=O)O

T1: human calcitonin receptor (human, UniProt P30988 25-474)
T1 construct: whole, on cells; also called hCTR; hCT
T1 sequence (looked up): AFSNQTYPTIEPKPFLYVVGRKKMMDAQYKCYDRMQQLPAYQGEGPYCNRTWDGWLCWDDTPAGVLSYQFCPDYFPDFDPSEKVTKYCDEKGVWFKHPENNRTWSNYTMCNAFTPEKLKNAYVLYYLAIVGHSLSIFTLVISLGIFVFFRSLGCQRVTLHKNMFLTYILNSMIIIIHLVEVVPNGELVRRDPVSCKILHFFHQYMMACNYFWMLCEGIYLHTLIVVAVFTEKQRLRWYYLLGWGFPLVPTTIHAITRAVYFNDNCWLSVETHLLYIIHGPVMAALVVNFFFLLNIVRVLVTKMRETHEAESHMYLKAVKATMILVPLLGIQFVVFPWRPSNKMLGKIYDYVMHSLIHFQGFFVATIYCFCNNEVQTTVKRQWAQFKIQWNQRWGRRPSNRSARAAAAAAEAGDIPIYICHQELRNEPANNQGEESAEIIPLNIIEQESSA

B1: N^α1-[(4S)-4-carboxy-4-(19-carboxynonadecanoylamino)butanoyl]-[His14,Arg17,Pro21,Pro27,Glu35]-h-amylin (peptide)
peptide: {C20 diacid-γGlu}-KCNTATCATQRLAHFLRHSSPNFGAIPSSTNVGSETY-NH2
modifications: disulfide 2-7
SMILES: CC[C@H](C)[C@H](NC(=O)[C@H](C)NC(=O)CNC(=O)[C@H](Cc1ccccc1)NC(=O)[C@H](CC(N)=O)NC(=O)[C@@H]1CCCN1C(=O)[C@H](CO)NC(=O)[C@H](CO)NC(=O)[C@H](Cc1c[nH]cn1)NC(=O)[C@H](CCCNC(=N)N)NC(=O)[C@H](CC(C)C)NC(=O)[C@H](Cc1ccccc1)NC(=O)[C@H](Cc1c[nH]cn1)NC(=O)[C@H](C)NC(=O)[C@H](CC(C)C)NC(=O)[C@H](CCCNC(=N)N)NC(=O)[C@H](CCC(N)=O)NC(=O)[C@@H](NC(=O)[C@H](C)NC(=O)[C@@H]1CSSC[C@H](NC(=O)[C@H](CCCCN)NC(=O)CC[C@H](NC(=O)CCCCCCCCCCCCCCCCCCC(=O)O)C(=O)O)C(=O)N[C@@H](CC(N)=O)C(=O)N[C@@H]([C@@H](C)O)C(=O)N[C@@H](C)C(=O)N[C@@H]([C@@H](C)O)C(=O)N1)[C@@H](C)O)C(=O)N1CCC[C@H]1C(=O)N[C@@H](CO)C(=O)N[C@@H](CO)C(=O)N[C@H](C(=O)N[C@@H](CC(N)=O)C(=O)N[C@H](C(=O)NCC(=O)N[C@@H](CO)C(=O)N[C@@H](CCC(=O)O)C(=O)N[C@H](C(=O)N[C@@H](Cc1ccc(O)cc1)C(N)=O)[C@@H](C)O)C(C)C)[C@@H](C)O
notes: also called compound 30
B2: N^ε1-[2-[2-[2-[[2-[2-[2-[[(4S)-4-carboxy-4-(19-carboxynonadecanoylamino)butanoyl]amino]ethoxy]ethoxy]acetyl]amino]ethoxy]ethoxy]acetyl]-[Arg17,Pro21,Pro27,Glu35 … (peptide)
peptide: K([AEEA-AEEA-γGlu-C20 diacid])CNTATCATQRLANFLRHSSPNFGAIPSSTNVGSETY-NH2
modifications: disulfide 2-7; N-terminus assumed
SMILES: CC[C@H](C)[C@H](NC(=O)[C@H](C)NC(=O)CNC(=O)[C@H](Cc1ccccc1)NC(=O)[C@H](CC(N)=O)NC(=O)[C@@H]1CCCN1C(=O)[C@H](CO)NC(=O)[C@H](CO)NC(=O)[C@H](Cc1c[nH]cn1)NC(=O)[C@H](CCCNC(=N)N)NC(=O)[C@H](CC(C)C)NC(=O)[C@H](Cc1ccccc1)NC(=O)[C@H](CC(N)=O)NC(=O)[C@H](C)NC(=O)[C@H](CC(C)C)NC(=O)[C@H](CCCNC(=N)N)NC(=O)[C@H](CCC(N)=O)NC(=O)[C@@H](NC(=O)[C@H](C)NC(=O)[C@@H]1CSSC[C@H](NC(=O)[C@@H](N)CCCCNC(=O)COCCOCCNC(=O)COCCOCCNC(=O)CC[C@H](NC(=O)CCCCCCCCCCCCCCCCCCC(=O)O)C(=O)O)C(=O)N[C@@H](CC(N)=O)C(=O)N[C@@H]([C@@H](C)O)C(=O)N[C@@H](C)C(=O)N[C@@H]([C@@H](C)O)C(=O)N1)[C@@H](C)O)C(=O)N1CCC[C@H]1C(=O)N[C@@H](CO)C(=O)N[C@@H](CO)C(=O)N[C@H](C(=O)N[C@@H](CC(N)=O)C(=O)N[C@H](C(=O)NCC(=O)N[C@@H](CO)C(=O)N[C@@H](CCC(=O)O)C(=O)N[C@H](C(=O)N[C@@H](Cc1ccc(O)cc1)C(N)=O)[C@@H](C)O)C(C)C)[C@@H](C)O
notes: also called compound 25
B3: N^ε1-[2-[2-[2-[[(4S)-4-carboxy-4-(19-carboxynonadecanoylamino)butanoyl]amino]ethoxy]ethoxy]acetyl]-[Arg14,Arg17,Pro21,Pro27,Pro31]-h-amylin (peptide)
peptide: K([AEEA-γGlu-C20 diacid])CNTATCATQRLARFLRHSSPNFGAIPSSTPVGSNTY-NH2
modifications: disulfide 2-7; N-terminus assumed
SMILES: CC[C@H](C)[C@H](NC(=O)[C@H](C)NC(=O)CNC(=O)[C@H](Cc1ccccc1)NC(=O)[C@H](CC(N)=O)NC(=O)[C@@H]1CCCN1C(=O)[C@H](CO)NC(=O)[C@H](CO)NC(=O)[C@H](Cc1c[nH]cn1)NC(=O)[C@H](CCCNC(=N)N)NC(=O)[C@H](CC(C)C)NC(=O)[C@H](Cc1ccccc1)NC(=O)[C@H](CCCNC(=N)N)NC(=O)[C@H](C)NC(=O)[C@H](CC(C)C)NC(=O)[C@H](CCCNC(=N)N)NC(=O)[C@H](CCC(N)=O)NC(=O)[C@@H](NC(=O)[C@H](C)NC(=O)[C@@H]1CSSC[C@H](NC(=O)[C@@H](N)CCCCNC(=O)COCCOCCNC(=O)CC[C@H](NC(=O)CCCCCCCCCCCCCCCCCCC(=O)O)C(=O)O)C(=O)N[C@@H](CC(N)=O)C(=O)N[C@@H]([C@@H](C)O)C(=O)N[C@@H](C)C(=O)N[C@@H]([C@@H](C)O)C(=O)N1)[C@@H](C)O)C(=O)N1CCC[C@H]1C(=O)N[C@@H](CO)C(=O)N[C@@H](CO)C(=O)N[C@H](C(=O)N1CCC[C@H]1C(=O)N[C@H](C(=O)NCC(=O)N[C@@H](CO)C(=O)N[C@@H](CC(N)=O)C(=O)N[C@H](C(=O)N[C@@H](Cc1ccc(O)cc1)C(N)=O)[C@@H](C)O)C(C)C)[C@@H](C)O
notes: also called compound 64
B4: N^ε1-[2-[2-[2-[[(4S)-4-carboxy-4-(19-carboxynonadecanoylamino)butanoyl]amino]ethoxy]ethoxy]acetyl]-[Arg17,Pro21,Pro27,Glu35]-h-amylin (peptide)
peptide: K([AEEA-γGlu-C20 diacid])CNTATCATQRLANFLRHSSPNFGAIPSSTNVGSETY-NH2
modifications: disulfide 2-7; N-terminus assumed
SMILES: CC[C@H](C)[C@H](NC(=O)[C@H](C)NC(=O)CNC(=O)[C@H](Cc1ccccc1)NC(=O)[C@H](CC(N)=O)NC(=O)[C@@H]1CCCN1C(=O)[C@H](CO)NC(=O)[C@H](CO)NC(=O)[C@H](Cc1c[nH]cn1)NC(=O)[C@H](CCCNC(=N)N)NC(=O)[C@H](CC(C)C)NC(=O)[C@H](Cc1ccccc1)NC(=O)[C@H](CC(N)=O)NC(=O)[C@H](C)NC(=O)[C@H](CC(C)C)NC(=O)[C@H](CCCNC(=N)N)NC(=O)[C@H](CCC(N)=O)NC(=O)[C@@H](NC(=O)[C@H](C)NC(=O)[C@@H]1CSSC[C@H](NC(=O)[C@@H](N)CCCCNC(=O)COCCOCCNC(=O)CC[C@H](NC(=O)CCCCCCCCCCCCCCCCCCC(=O)O)C(=O)O)C(=O)N[C@@H](CC(N)=O)C(=O)N[C@@H]([C@@H](C)O)C(=O)N[C@@H](C)C(=O)N[C@@H]([C@@H](C)O)C(=O)N1)[C@@H](C)O)C(=O)N1CCC[C@H]1C(=O)N[C@@H](CO)C(=O)N[C@@H](CO)C(=O)N[C@H](C(=O)N[C@@H](CC(N)=O)C(=O)N[C@H](C(=O)NCC(=O)N[C@@H](CO)C(=O)N[C@@H](CCC(=O)O)C(=O)N[C@H](C(=O)N[C@@H](Cc1ccc(O)cc1)C(N)=O)[C@@H](C)O)C(C)C)[C@@H](C)O
notes: also called compound 26
B5: N^ε1-[2-[2-[2-[[(4S)-4-carboxy-4-(19-carboxynonadecanoylamino)butanoyl]amino]ethoxy]ethoxy]acetyl]-[Ala14,Arg17,Pro21,Pro27,Pro31]-h-amylin (peptide)
peptide: K([AEEA-γGlu-C20 diacid])CNTATCATQRLAAFLRHSSPNFGAIPSSTPVGSNTY-NH2
modifications: disulfide 2-7; N-terminus assumed
SMILES: CC[C@H](C)[C@H](NC(=O)[C@H](C)NC(=O)CNC(=O)[C@H](Cc1ccccc1)NC(=O)[C@H](CC(N)=O)NC(=O)[C@@H]1CCCN1C(=O)[C@H](CO)NC(=O)[C@H](CO)NC(=O)[C@H](Cc1c[nH]cn1)NC(=O)[C@H](CCCNC(=N)N)NC(=O)[C@H](CC(C)C)NC(=O)[C@H](Cc1ccccc1)NC(=O)[C@H](C)NC(=O)[C@H](C)NC(=O)[C@H](CC(C)C)NC(=O)[C@H](CCCNC(=N)N)NC(=O)[C@H](CCC(N)=O)NC(=O)[C@@H](NC(=O)[C@H](C)NC(=O)[C@@H]1CSSC[C@H](NC(=O)[C@@H](N)CCCCNC(=O)COCCOCCNC(=O)CC[C@H](NC(=O)CCCCCCCCCCCCCCCCCCC(=O)O)C(=O)O)C(=O)N[C@@H](CC(N)=O)C(=O)N[C@@H]([C@@H](C)O)C(=O)N[C@@H](C)C(=O)N[C@@H]([C@@H](C)O)C(=O)N1)[C@@H](C)O)C(=O)N1CCC[C@H]1C(=O)N[C@@H](CO)C(=O)N[C@@H](CO)C(=O)N[C@H](C(=O)N1CCC[C@H]1C(=O)N[C@H](C(=O)NCC(=O)N[C@@H](CO)C(=O)N[C@@H](CC(N)=O)C(=O)N[C@H](C(=O)N[C@@H](Cc1ccc(O)cc1)C(N)=O)[C@@H](C)O)C(C)C)[C@@H](C)O
notes: also called compound 72

target: T1, human calcitonin receptor; assay: SPA competition with 125I-calcitonin, membranes of BHK hCTR cells (Assay VII)
Procedure: Membranes were prepared in the following way; the cells were rinsed with PBS and incubated with Versene for approximately 5 min before harvesting. The cells were flushed with PBS and the cell-suspension was centrifuged for 5 min at 1000 rpm. Cells were homogenized (Ultrathurrax) in a buffer containing 20 mM Na-HEPES and 10 mM EDTA (pH 7.4) and centrifuged at 20.000 rpm for 15 min. The resulting pellet was resuspended, homogenized and centrifuged (20.000 rpm, 15 min) in a buffer containing 20 mM Na-HEPES and 0.1 mM EDTA (pH 7.4, buffer 2). The resulting pellet was resuspended in buffer 2 and protein concentration was measured (BCA protein Assay, Pierce). The homogenate was kept cold during the whole procedure. The membranes were kept at −80° C. until use. Assay was performed in a 384 well Optiplate (PerkinElmer) in a total volume of 40 ul. Membranes were mixed with SPA beads. Final concentration of membranes 35 ng/μL final and Final concentration of SPA beads was 0.05 mg/well. Test-compounds were dissolved in DMSO and further diluted in assay buffer (50 mM Hepes, pH 7.4, 1 mM CaCl2, 5 mM MgCl₂, 0.1% OA and 0.02% Tween20). […] The final mixture was incubated for 120 min with shaking at 400 rpm at 25° C. prior to centrifugation (1500 rpm, 10 min). Samples were analyzed on TopCounter™ (Packard). The […] was calculated using (one site binding competition analysis) GraphPad Prism5 as a measure of receptor affinity.

Row | IC50 [nM] | Binder
1 | 21.6 | B1
2 | 5.38 | K([AEEA-γGlu-C20 diacid])CNTATCATQRLANFLRHSSPNFGAIPPSTPVGSNTY-NH2 (disulfide 2-7, also called compound 53)
3 | 43.4 | B2
4 | 56 | B3
5 | 25.3 | B4
6 | 42.4 | B5
